Usually Kd stands for the equilibrium constant for the complex coming apart. A higher Kd goes with lower affinity.

This note sets out measurements from patent publication US20240270846A1 (published 2024).

The target in test [1] is T1, biotin-labeled human CD137 fused to human IgG1 Fc fragment (human, biotin-labeled).
T1 construct: Immobilised on streptavidin beads through biotin; also called human CD137-Fc; biotin-human CD137-Fc
Put plainly: competitive bead ELISA, IgG on biotin-human CD137-Fc, competitor free CD3 epsilon peptide 125 pmol/well. For orientation: ELISA stands for enzyme-linked immunosorbent assay.

For test [2], the target named is T1, biotin-labeled human CD137 fused to …. Kind of test: bead ELISA, IgG on biotin-human CD137-Fc on streptavidin beads, no free CD3e.
The target is the same in test [3]. Kind of test: competitive bead ELISA, decrease of signal on biotin-human CD137-Fc with 125 pmol/well free CD3 epsilon peptide against 0.
For test [4], the target named is T2, biotinylated CD3 epsilon epitope peptide (UniProt P07766 22-48, biotinylated).
T2 chain: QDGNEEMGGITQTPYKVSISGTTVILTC
Kind of test: SPR (Biacore); biotinylated CD3 epsilon epitope peptide on chip via streptavidin, antibody as analyte. For orientation: Surface plasmon resonance follows binding to a sensor surface in real time, without labels.
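Wherever ELISA signal, free CD3e 125 pmol/well is given: bead ELISA on streptavidin-coated magnetic beads, with the signal read as well fluorescence 2 min after APS-5 addition.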

B1: anti-human CD137 antibody described in WO2005/035584A1 (abbreviated as B) (antibody, V domains shown)
VH: QVQLQQWGAGLLKPSETLSLTCAVYGGSFSGYYWSWIRQSPEKGLEWIGEINHGGYVTYNPSLESRVTISVDTSKNQFSLKLSSVTAADTAVYYCARDYGPGNYDWYFDLWGRGTLVTVSS
VL: EIVLTQSPATLSLSPGERATLSCRASQSVSSYLAWYQQKPGQAPRLLIYDASNRATGIPARFSGSGSGTDFTLTISSLEPEDFAVYYCQQRSNWPPALTFGGGTKVEIK
notes: also called control anti-CD137 antibody
For B1, in test [1], the “ELISA signal, free CD3e 125 pmol/well” value came to 98100. In test [2], the “ELISA signal, free CD3e 0 pmol/well” value amounted to 99400. The molecule also came in with a Signal decrease in test [3] of 1.26%.

B2: NNS6f17 (CE115HA340 with WGEGVV inserted between Kabat positions 99 and 100), one-arm antibody (antibody)
chain 1: QVQLVESGGGLVQPGRSLRLSCAASGFTFSNAWMHWVRQAPGKGLEWVAQIKDKSNNYATYYAESVKGRFTISRDDSKNSIYLQMNSLKTEDTAVYYCRYVHYAAWGEGVVYYGVDAWGQGTTVTVSSASTKGPSVFPLAPSSKSTSGGTAALGCLVKDYFPEPVTVSWNSGALTSGVHTFPAVLQSSGLYSLSSVVTVPSSSLGTQTYICNVNHKPSNTKVDKKVEPKSCDKTHTCPPCPAPEAAGGPSVFLFPPKPKDTLMISRTPEVTCVVVDVSHEDPEVKFNWYVDGVEVHNAKTKPREEQYASTYRVVSVLTVLHQDWLNGKEYKCKVSNKALPAPIEKTISKAKGQPREPQVYTLPPSRCELTKNQVSLSCAVKGFYPSDIAVEWESNGQPENNYKTTPPVLDSDGSFFLVSKLTVDKSRWQQGNVFSCSVMHEALHNHYTQKSLSLSPDYKDDDDK
chain 2: EPKSSDKTHTCPPCPAPELLGGPSVFLFPPKPKDTLMISRTPEVTCVVVDVSHEDPEVKFNWYVDGVEVHNAKTKPREEQYNSTYRVVSVLTVLHQDWLNGKEYKCKVSNKALPAPIEKTISKAKGQPREPQVCTLPPSRDELTKNQVSLWCLVKGFYPSDIAVEWESNGQPENNYKTTPPVLDSDGSFFLYSKLTVDKSRWQQGNVFSCSVMHEALHNRYTQKSLSLSP
chain 3: DIVMTQSPLSLPVTPGEPASISCRSSQSLVHSNRNTYLHWYQQKPGQAPRLLIYKVSNRFSGVPDRFSGSGSGTDFTLKISRVEAEDVGVYYCGQGTQVPYTFGQGTKLEIKRTVAAPSVFIFPPSDEQLKSGTASVVCLLNNFYPREAKVQWKVDNALQSGNSQESVTEQDSKDSTYSLSSTLTLSKADYEKHKVYACEVTHQGLSSPVTKSFNRGEC
B2 returned a Kd in test [4] of 74 nM.

B3: NNS6f47 (CE115HA340 with HFMWWG inserted between Kabat positions 99 and 100), one-arm antibody (antibody)
chain 1: QVQLVESGGGLVQPGRSLRLSCAASGFTFSNAWMHWVRQAPGKGLEWVAQIKDKSNNYATYYAESVKGRFTISRDDSKNSIYLQMNSLKTEDTAVYYCRYVHYAAHFMWWGYYGVDAWGQGTTVTVSSASTKGPSVFPLAPSSKSTSGGTAALGCLVKDYFPEPVTVSWNSGALTSGVHTFPAVLQSSGLYSLSSVVTVPSSSLGTQTYICNVNHKPSNTKVDKKVEPKSCDKTHTCPPCPAPEAAGGPSVFLFPPKPKDTLMISRTPEVTCVVVDVSHEDPEVKFNWYVDGVEVHNAKTKPREEQYASTYRVVSVLTVLHQDWLNGKEYKCKVSNKALPAPIEKTISKAKGQPREPQVYTLPPSRCELTKNQVSLSCAVKGFYPSDIAVEWESNGQPENNYKTTPPVLDSDGSFFLVSKLTVDKSRWQQGNVFSCSVMHEALHNHYTQKSLSLSPDYKDDDDK
chain 2: EPKSSDKTHTCPPCPAPELLGGPSVFLFPPKPKDTLMISRTPEVTCVVVDVSHEDPEVKFNWYVDGVEVHNAKTKPREEQYNSTYRVVSVLTVLHQDWLNGKEYKCKVSNKALPAPIEKTISKAKGQPREPQVCTLPPSRDELTKNQVSLWCLVKGFYPSDIAVEWESNGQPENNYKTTPPVLDSDGSFFLYSKLTVDKSRWQQGNVFSCSVMHEALHNRYTQKSLSLSP
chain 3: DIVMTQSPLSLPVTPGEPASISCRSSQSLVHSNRNTYLHWYQQKPGQAPRLLIYKVSNRFSGVPDRFSGSGSGTDFTLKISRVEAEDVGVYYCGQGTQVPYTFGQGTKLEIKRTVAAPSVFIFPPSDEQLKSGTASVVCLLNNFYPREAKVQWKVDNALQSGNSQESVTEQDSKDSTYSLSSTLTLSKADYEKHKVYACEVTHQGLSSPVTKSFNRGEC
As to B3, binding in test [4] was put at a Kd of 31 nM.

B4: NNS6f27 (CE115HA340 with VWGSVW inserted between Kabat positions 99 and 100), one-arm antibody (antibody)
chain 1: QVQLVESGGGLVQPGRSLRLSCAASGFTFSNAWMHWVRQAPGKGLEWVAQIKDKSNNYATYYAESVKGRFTISRDDSKNSIYLQMNSLKTEDTAVYYCRYVHYAAVWGSVWYYGVDAWGQGTTVTVSSASTKGPSVFPLAPSSKSTSGGTAALGCLVKDYFPEPVTVSWNSGALTSGVHTFPAVLQSSGLYSLSSVVTVPSSSLGTQTYICNVNHKPSNTKVDKKVEPKSCDKTHTCPPCPAPEAAGGPSVFLFPPKPKDTLMISRTPEVTCVVVDVSHEDPEVKFNWYVDGVEVHNAKTKPREEQYASTYRVVSVLTVLHQDWLNGKEYKCKVSNKALPAPIEKTISKAKGQPREPQVYTLPPSRCELTKNQVSLSCAVKGFYPSDIAVEWESNGQPENNYKTTPPVLDSDGSFFLVSKLTVDKSRWQQGNVFSCSVMHEALHNHYTQKSLSLSPDYKDDDDK
chain 2: EPKSSDKTHTCPPCPAPELLGGPSVFLFPPKPKDTLMISRTPEVTCVVVDVSHEDPEVKFNWYVDGVEVHNAKTKPREEQYNSTYRVVSVLTVLHQDWLNGKEYKCKVSNKALPAPIEKTISKAKGQPREPQVCTLPPSRDELTKNQVSLWCLVKGFYPSDIAVEWESNGQPENNYKTTPPVLDSDGSFFLYSKLTVDKSRWQQGNVFSCSVMHEALHNRYTQKSLSLSP
chain 3: DIVMTQSPLSLPVTPGEPASISCRSSQSLVHSNRNTYLHWYQQKPGQAPRLLIYKVSNRFSGVPDRFSGSGSGTDFTLKISRVEAEDVGVYYCGQGTQVPYTFGQGTKLEIKRTVAAPSVFIFPPSDEQLKSGTASVVCLLNNFYPREAKVQWKVDNALQSGNSQESVTEQDSKDSTYSLSSTLTLSKADYEKHKVYACEVTHQGLSSPVTKSFNRGEC
Regarding B4, the Kd in test [4] was determined as 38 nM.

B5: NNS6f50 (CE115HA340 with LTGGLG inserted between Kabat positions 99 and 100), one-arm antibody (antibody)
chain 1: QVQLVESGGGLVQPGRSLRLSCAASGFTFSNAWMHWVRQAPGKGLEWVAQIKDKSNNYATYYAESVKGRFTISRDDSKNSIYLQMNSLKTEDTAVYYCRYVHYAALTGGLGYYGVDAWGQGTTVTVSSASTKGPSVFPLAPSSKSTSGGTAALGCLVKDYFPEPVTVSWNSGALTSGVHTFPAVLQSSGLYSLSSVVTVPSSSLGTQTYICNVNHKPSNTKVDKKVEPKSCDKTHTCPPCPAPEAAGGPSVFLFPPKPKDTLMISRTPEVTCVVVDVSHEDPEVKFNWYVDGVEVHNAKTKPREEQYASTYRVVSVLTVLHQDWLNGKEYKCKVSNKALPAPIEKTISKAKGQPREPQVYTLPPSRCELTKNQVSLSCAVKGFYPSDIAVEWESNGQPENNYKTTPPVLDSDGSFFLVSKLTVDKSRWQQGNVFSCSVMHEALHNHYTQKSLSLSPDYKDDDDK
chain 2: EPKSSDKTHTCPPCPAPELLGGPSVFLFPPKPKDTLMISRTPEVTCVVVDVSHEDPEVKFNWYVDGVEVHNAKTKPREEQYNSTYRVVSVLTVLHQDWLNGKEYKCKVSNKALPAPIEKTISKAKGQPREPQVCTLPPSRDELTKNQVSLWCLVKGFYPSDIAVEWESNGQPENNYKTTPPVLDSDGSFFLYSKLTVDKSRWQQGNVFSCSVMHEALHNRYTQKSLSLSP
chain 3: DIVMTQSPLSLPVTPGEPASISCRSSQSLVHSNRNTYLHWYQQKPGQAPRLLIYKVSNRFSGVPDRFSGSGSGTDFTLKISRVEAEDVGVYYCGQGTQVPYTFGQGTKLEIKRTVAAPSVFIFPPSDEQLKSGTASVVCLLNNFYPREAKVQWKVDNALQSGNSQESVTEQDSKDSTYSLSSTLTLSKADYEKHKVYACEVTHQGLSSPVTKSFNRGEC
In the case of B5, the Kd in test [4] was determined as 71 nM.

B6: NNS6f51 (CE115HA340 with GFLVLW inserted between Kabat positions 99 and 100), one-arm antibody (antibody)
chain 1: QVQLVESGGGLVQPGRSLRLSCAASGFTFSNAWMHWVRQAPGKGLEWVAQIKDKSNNYATYYAESVKGRFTISRDDSKNSIYLQMNSLKTEDTAVYYCRYVHYAAGFLVLWYYGVDAWGQGTTVTVSSASTKGPSVFPLAPSSKSTSGGTAALGCLVKDYFPEPVTVSWNSGALTSGVHTFPAVLQSSGLYSLSSVVTVPSSSLGTQTYICNVNHKPSNTKVDKKVEPKSCDKTHTCPPCPAPEAAGGPSVFLFPPKPKDTLMISRTPEVTCVVVDVSHEDPEVKFNWYVDGVEVHNAKTKPREEQYASTYRVVSVLTVLHQDWLNGKEYKCKVSNKALPAPIEKTISKAKGQPREPQVYTLPPSRCELTKNQVSLSCAVKGFYPSDIAVEWESNGQPENNYKTTPPVLDSDGSFFLVSKLTVDKSRWQQGNVFSCSVMHEALHNHYTQKSLSLSPDYKDDDDK
chain 2: EPKSSDKTHTCPPCPAPELLGGPSVFLFPPKPKDTLMISRTPEVTCVVVDVSHEDPEVKFNWYVDGVEVHNAKTKPREEQYNSTYRVVSVLTVLHQDWLNGKEYKCKVSNKALPAPIEKTISKAKGQPREPQVCTLPPSRDELTKNQVSLWCLVKGFYPSDIAVEWESNGQPENNYKTTPPVLDSDGSFFLYSKLTVDKSRWQQGNVFSCSVMHEALHNRYTQKSLSLSP
chain 3: DIVMTQSPLSLPVTPGEPASISCRSSQSLVHSNRNTYLHWYQQKPGQAPRLLIYKVSNRFSGVPDRFSGSGSGTDFTLKISRVEAEDVGVYYCGQGTQVPYTFGQGTKLEIKRTVAAPSVFIFPPSDEQLKSGTASVVCLLNNFYPREAKVQWKVDNALQSGNSQESVTEQDSKDSTYSLSSTLTLSKADYEKHKVYACEVTHQGLSSPVTKSFNRGEC
Regarding B6, the Kd in test [4] is 31 nM.

B7: NNS6f29 (CE115HA340 with IYYPTN inserted between Kabat positions 99 and 100), one-arm antibody (antibody)
chain 1: QVQLVESGGGLVQPGRSLRLSCAASGFTFSNAWMHWVRQAPGKGLEWVAQIKDKSNNYATYYAESVKGRFTISRDDSKNSIYLQMNSLKTEDTAVYYCRYVHYAAIYYPTNYYGVDAWGQGTTVTVSSASTKGPSVFPLAPSSKSTSGGTAALGCLVKDYFPEPVTVSWNSGALTSGVHTFPAVLQSSGLYSLSSVVTVPSSSLGTQTYICNVNHKPSNTKVDKKVEPKSCDKTHTCPPCPAPEAAGGPSVFLFPPKPKDTLMISRTPEVTCVVVDVSHEDPEVKFNWYVDGVEVHNAKTKPREEQYASTYRVVSVLTVLHQDWLNGKEYKCKVSNKALPAPIEKTISKAKGQPREPQVYTLPPSRCELTKNQVSLSCAVKGFYPSDIAVEWESNGQPENNYKTTPPVLDSDGSFFLVSKLTVDKSRWQQGNVFSCSVMHEALHNHYTQKSLSLSPDYKDDDDK
chain 2: EPKSSDKTHTCPPCPAPELLGGPSVFLFPPKPKDTLMISRTPEVTCVVVDVSHEDPEVKFNWYVDGVEVHNAKTKPREEQYNSTYRVVSVLTVLHQDWLNGKEYKCKVSNKALPAPIEKTISKAKGQPREPQVCTLPPSRDELTKNQVSLWCLVKGFYPSDIAVEWESNGQPENNYKTTPPVLDSDGSFFLYSKLTVDKSRWQQGNVFSCSVMHEALHNRYTQKSLSLSP
chain 3: DIVMTQSPLSLPVTPGEPASISCRSSQSLVHSNRNTYLHWYQQKPGQAPRLLIYKVSNRFSGVPDRFSGSGSGTDFTLKISRVEAEDVGVYYCGQGTQVPYTFGQGTKLEIKRTVAAPSVFIFPPSDEQLKSGTASVVCLLNNFYPREAKVQWKVDNALQSGNSQESVTEQDSKDSTYSLSSTLTLSKADYEKHKVYACEVTHQGLSSPVTKSFNRGEC
B7 returned a Kd in test [4] of 90 nM.
